Results reported in patent US20070184022A1.

Target: T1, H2-Kb molecules in the microsomes of RAW309Cr.1 cells (murine)
T1 chain 1: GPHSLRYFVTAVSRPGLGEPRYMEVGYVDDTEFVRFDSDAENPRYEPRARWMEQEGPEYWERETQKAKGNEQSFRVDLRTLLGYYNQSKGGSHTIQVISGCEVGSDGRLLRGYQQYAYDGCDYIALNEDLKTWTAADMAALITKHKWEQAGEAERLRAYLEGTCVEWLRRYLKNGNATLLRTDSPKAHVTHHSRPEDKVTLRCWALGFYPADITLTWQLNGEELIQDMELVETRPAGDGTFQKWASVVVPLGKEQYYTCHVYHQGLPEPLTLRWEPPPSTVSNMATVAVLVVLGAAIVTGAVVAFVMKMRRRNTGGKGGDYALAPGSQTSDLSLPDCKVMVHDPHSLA
T1 chain 2: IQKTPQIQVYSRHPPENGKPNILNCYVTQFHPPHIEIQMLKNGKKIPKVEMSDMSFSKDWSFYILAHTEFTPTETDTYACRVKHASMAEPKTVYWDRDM
Test: competition against 125I-labelled modified OVA peptide (competitor at the concentration of the report peptide), photo-crosslinking to Kb in microsomes
Settings: remark: other sources report otherwise

- percent of the report peptide competed: 50%
Binder: SIINFEKL [native OVA peptide (residues 257-264, SIINFEKL)]
